Source: the supplement of paper PMC10065799, “High-throughput profiling of sequence recognition by tyrosine kinases and SH2 domains using bacterial peptide display” (eLife, 2023)
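Wherever SH2 binding enrichment of the phosphorylated peptide, bacterial display is given: peptide library displayed on the E. coli surface as eCPX fusions, selected cells deep-sequenced, score is each peptide's frequency after selection divided by its frequency in the input.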
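Wherever phosphorylation enrichment, bacterial display is given: 11-residue human phosphosite peptides and single-mutation variants displayed on the E. coli surface, counted by deep sequencing, each peptide's frequency after selection divided by its frequency in the unselected input library; frequency after pTyr selection over input frequency; kinase dosed for 20-30% of maximal phosphorylation in three min.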

The sequences below were run against c-Src SH2 (assay: SH2 binding enrichment of the phosphorylated peptide, bacterial display (enrichment ratio); higher = better substrate or ligand; peptides without Tyr show the background).
Sequence LVGTPYWMAPE [PAK5_Y608] has an SH2 binding enrichment of 0.673.
EEGNPSFSSAR [MCCC2_Y520_Y520S_YF] was tested, and the SH2 binding enrichment was 0.462.
FPRAWYRRSIA [KIAA1109_Y4272] gave an SH2 binding enrichment of 0.462.
NSNSDYVDILP [SH2D1B_Y127_V130I] was tested, and the SH2 binding enrichment was 0.571.
Work on PNKAVYTKMMT [G6PD_Y401_E398K] yielded an SH2 binding enrichment of 3.63.
With CTNIHYNFMCN [TP53_Y234_T231N_YF] the SH2 binding enrichment was 2.21.
Work on QKINNYLTVPA [SLC9A1_Y683] yielded an SH2 binding enrichment of 0.376.
For FGYPGYQSKHY [TIMP3_Y177], the SH2 binding enrichment was 0.511.
In the case of AKIDGYITSYR, the SH2 binding enrichment is reported as 0.501.
In the case of YRTGHYLCNAC [GATA1_Y223_D218Y], the SH2 binding enrichment is reported as 0.968.
FHRQLYHKCTH [F12_Y58_YF] showed an SH2 binding enrichment of 0.916.
EQFELYCEMGS [CBL_Y371_YF] gave an SH2 binding enrichment of 0.46.
RMETAYGPSVT [MXRA5_Y2717_E2716A] showed an SH2 binding enrichment of 0.405.
Sequence AADGRYEVLFL [SEMA3F_Y478] has an SH2 binding enrichment of 7.
RRFLFYFSFLL [PTEN_Y177_V175L_YF] gave an SH2 binding enrichment of 0.519.
For CNNFICGGCRG [SPINT2_Y163_Y163C], the SH2 binding enrichment was 0.6.
LATINYPFEKG [NDUFS8_Y84_P79L] was tested, and the SH2 binding enrichment was 0.557.
SHSMRYFDTSV [HLA-C_Y31_A35S] gave an SH2 binding enrichment of 0.367.
For ADKSAYLMGVN [MYH7_Y386_L390V], the SH2 binding enrichment was 0.32.
RTESQYQENRG [LRCH3_Y354_R350T] gave an SH2 binding enrichment of 0.554.
SRASFYRKGGC [ALK_Y1283_Y1278S_YF] showed an SH2 binding enrichment of 0.433.
Sequence TMEDSYRKQVV [KRAS_Y40_I36M] has an SH2 binding enrichment of 0.356.
DAGTDYVGISC [FREM2_Y2061_R2066C] was tested, and the SH2 binding enrichment was 0.658.
Work on SVVVPYETPEV [TP53_Y220_P222T] yielded an SH2 binding enrichment of 1.83.
Sequence QSKGIYYVQLE [MGAT4B_Y262] has an SH2 binding enrichment of 1.35.
With DYYDLYGGEKL [PTPN11_Y66_F71L] the SH2 binding enrichment was 0.709.
With GLIPAYHWVIM [NMNAT1_Y64_R66W] the SH2 binding enrichment was 0.535.
Work on VTPVMYTFDEF [COL10A1_Y623_G618V_YF] yielded an SH2 binding enrichment of 0.772.
In the case of KEEEDYREENN [BMS1_Y651_K652R], the SH2 binding enrichment is reported as 0.458.
PRRRFYVVACD [RNASE3_Y134_G130R] was tested, and the SH2 binding enrichment was 0.47.
For HAVFIYDICHV [TWNK_Y508_V507I_YF], the SH2 binding enrichment was 0.619.
With YKPGFYNLKEK [LAMA1_Y490_C485Y] the SH2 binding enrichment was 0.814.
In the case of DFKIIYIAPMR [SNRNP200_Y540], the SH2 binding enrichment is reported as 0.759.

What follows are sequences tested against Grb2 SH2 (UniProt P62993) in the same assay as above.
Chain of Grb2 SH2 (P62993 whole entry, looked up): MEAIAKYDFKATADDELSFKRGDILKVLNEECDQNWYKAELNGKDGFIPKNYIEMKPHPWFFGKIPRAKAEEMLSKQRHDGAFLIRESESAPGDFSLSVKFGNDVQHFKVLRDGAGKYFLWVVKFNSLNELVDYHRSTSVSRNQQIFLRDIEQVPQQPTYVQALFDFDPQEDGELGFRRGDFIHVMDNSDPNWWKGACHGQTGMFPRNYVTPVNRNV
LVGTPYWMAPE [PAK5_Y608] gave an SH2 binding enrichment of 0.76.
EEGNPSFSSAR [MCCC2_Y520_Y520S_YF] showed an SH2 binding enrichment of 0.75.
Work on FPRAWYRRSIA [KIAA1109_Y4272] yielded an SH2 binding enrichment of 0.801.
In the case of NSNSDYVDILP [SH2D1B_Y127_V130I], the SH2 binding enrichment is reported as 0.788.
PNKAVYTKMMT [G6PD_Y401_E398K] was tested, and the SH2 binding enrichment was 0.959.
For CTNIHYNFMCN [TP53_Y234_T231N_YF], the SH2 binding enrichment was 1.62.
QKINNYLTVPA [SLC9A1_Y683] was tested, and the SH2 binding enrichment was 0.469.
FGYPGYQSKHY [TIMP3_Y177] was tested, and the SH2 binding enrichment was 0.895.
AKIDGYITSYR was tested, and the SH2 binding enrichment was 0.815.
With YRTGHYLCNAC [GATA1_Y223_D218Y] the SH2 binding enrichment was 1.01.
In the case of FHRQLYHKCTH [F12_Y58_YF], the SH2 binding enrichment is reported as 1.03.
For EQFELYCEMGS [CBL_Y371_YF], the SH2 binding enrichment was 0.934.
In the case of RMETAYGPSVT [MXRA5_Y2717_E2716A], the SH2 binding enrichment is reported as 0.76.
In the case of AADGRYEVLFL [SEMA3F_Y478], the SH2 binding enrichment is reported as 0.832.
In the case of RRFLFYFSFLL [PTEN_Y177_V175L_YF], the SH2 binding enrichment is reported as 0.821.
CNNFICGGCRG [SPINT2_Y163_Y163C] was tested, and the SH2 binding enrichment was 0.968.
With LATINYPFEKG [NDUFS8_Y84_P79L] the SH2 binding enrichment was 1.09.
In the case of SHSMRYFDTSV [HLA-C_Y31_A35S], the SH2 binding enrichment is reported as 0.932.
In the case of ADKSAYLMGVN [MYH7_Y386_L390V], the SH2 binding enrichment is reported as 0.786.
Sequence RTESQYQENRG [LRCH3_Y354_R350T] has an SH2 binding enrichment of 1.19.
Work on SRASFYRKGGC [ALK_Y1283_Y1278S_YF] yielded an SH2 binding enrichment of 0.674.
Sequence TMEDSYRKQVV [KRAS_Y40_I36M] has an SH2 binding enrichment of 0.728.
Work on DAGTDYVGISC [FREM2_Y2061_R2066C] yielded an SH2 binding enrichment of 0.991.
SVVVPYETPEV [TP53_Y220_P222T] was tested, and the SH2 binding enrichment was 0.827.
In the case of QSKGIYYVQLE [MGAT4B_Y262], the SH2 binding enrichment is reported as 0.724.
In the case of DYYDLYGGEKL [PTPN11_Y66_F71L], the SH2 binding enrichment is reported as 0.812.
For GLIPAYHWVIM [NMNAT1_Y64_R66W], the SH2 binding enrichment was 0.878.
Work on VTPVMYTFDEF [COL10A1_Y623_G618V_YF] yielded an SH2 binding enrichment of 0.93.
Sequence KEEEDYREENN [BMS1_Y651_K652R] has an SH2 binding enrichment of 0.754.
For PRRRFYVVACD [RNASE3_Y134_G130R], the SH2 binding enrichment was 0.592.
Sequence HAVFIYDICHV [TWNK_Y508_V507I_YF] has an SH2 binding enrichment of 1.34.
In the case of YKPGFYNLKEK [LAMA1_Y490_C485Y], the SH2 binding enrichment is reported as 1.27.
DFKIIYIAPMR [SNRNP200_Y540] gave an SH2 binding enrichment of 1.46.

What follows are sequences tested against SHP2-C SH2 in the same assay as above.
With LVGTPYWMAPE [PAK5_Y608] the SH2 binding enrichment was 1.58.
For EEGNPSFSSAR [MCCC2_Y520_Y520S_YF], the SH2 binding enrichment was 0.574.
With FPRAWYRRSIA [KIAA1109_Y4272] the SH2 binding enrichment was 0.339.
NSNSDYVDILP [SH2D1B_Y127_V130I] was tested, and the SH2 binding enrichment was 0.503.
Work on PNKAVYTKMMT [G6PD_Y401_E398K] yielded an SH2 binding enrichment of 4.8.
Sequence CTNIHYNFMCN [TP53_Y234_T231N_YF] has an SH2 binding enrichment of 1.62.
With QKINNYLTVPA [SLC9A1_Y683] the SH2 binding enrichment was 0.573.
With FGYPGYQSKHY [TIMP3_Y177] the SH2 binding enrichment was 0.751.
AKIDGYITSYR was tested, and the SH2 binding enrichment was 0.739.
For YRTGHYLCNAC [GATA1_Y223_D218Y], the SH2 binding enrichment was 1.12.
FHRQLYHKCTH [F12_Y58_YF] gave an SH2 binding enrichment of 0.933.
EQFELYCEMGS [CBL_Y371_YF] was tested, and the SH2 binding enrichment was 0.638.
In the case of RMETAYGPSVT [MXRA5_Y2717_E2716A], the SH2 binding enrichment is reported as 0.904.
In the case of AADGRYEVLFL [SEMA3F_Y478], the SH2 binding enrichment is reported as 0.617.
Sequence RRFLFYFSFLL [PTEN_Y177_V175L_YF] has an SH2 binding enrichment of 0.478.
Work on CNNFICGGCRG [SPINT2_Y163_Y163C] yielded an SH2 binding enrichment of 0.757.
In the case of LATINYPFEKG [NDUFS8_Y84_P79L], the SH2 binding enrichment is reported as 0.628.
Sequence SHSMRYFDTSV [HLA-C_Y31_A35S] has an SH2 binding enrichment of 0.885.
With ADKSAYLMGVN [MYH7_Y386_L390V] the SH2 binding enrichment was 0.594.
With RTESQYQENRG [LRCH3_Y354_R350T] the SH2 binding enrichment was 0.862.
Sequence SRASFYRKGGC [ALK_Y1283_Y1278S_YF] has an SH2 binding enrichment of 0.548.
For TMEDSYRKQVV [KRAS_Y40_I36M], the SH2 binding enrichment was 0.48.
For DAGTDYVGISC [FREM2_Y2061_R2066C], the SH2 binding enrichment was 0.898.
SVVVPYETPEV [TP53_Y220_P222T] showed an SH2 binding enrichment of 0.694.
Work on QSKGIYYVQLE [MGAT4B_Y262] yielded an SH2 binding enrichment of 1.71.
Sequence DYYDLYGGEKL [PTPN11_Y66_F71L] has an SH2 binding enrichment of 0.935.
Work on GLIPAYHWVIM [NMNAT1_Y64_R66W] yielded an SH2 binding enrichment of 0.52.
For VTPVMYTFDEF [COL10A1_Y623_G618V_YF], the SH2 binding enrichment was 0.698.
Sequence KEEEDYREENN [BMS1_Y651_K652R] has an SH2 binding enrichment of 0.822.
Work on PRRRFYVVACD [RNASE3_Y134_G130R] yielded an SH2 binding enrichment of 0.486.
In the case of HAVFIYDICHV [TWNK_Y508_V507I_YF], the SH2 binding enrichment is reported as 0.793.
YKPGFYNLKEK [LAMA1_Y490_C485Y] was tested, and the SH2 binding enrichment was 1.5.
Work on DFKIIYIAPMR [SNRNP200_Y540] yielded an SH2 binding enrichment of 1.32.

The sequences below were run against Jak2 (UniProt O60674) (assay: phosphorylation enrichment, bacterial display (enrichment ratio); higher = better substrate or ligand; peptides without Tyr show the background).
Chain of Jak2 (O60674 whole entry, looked up): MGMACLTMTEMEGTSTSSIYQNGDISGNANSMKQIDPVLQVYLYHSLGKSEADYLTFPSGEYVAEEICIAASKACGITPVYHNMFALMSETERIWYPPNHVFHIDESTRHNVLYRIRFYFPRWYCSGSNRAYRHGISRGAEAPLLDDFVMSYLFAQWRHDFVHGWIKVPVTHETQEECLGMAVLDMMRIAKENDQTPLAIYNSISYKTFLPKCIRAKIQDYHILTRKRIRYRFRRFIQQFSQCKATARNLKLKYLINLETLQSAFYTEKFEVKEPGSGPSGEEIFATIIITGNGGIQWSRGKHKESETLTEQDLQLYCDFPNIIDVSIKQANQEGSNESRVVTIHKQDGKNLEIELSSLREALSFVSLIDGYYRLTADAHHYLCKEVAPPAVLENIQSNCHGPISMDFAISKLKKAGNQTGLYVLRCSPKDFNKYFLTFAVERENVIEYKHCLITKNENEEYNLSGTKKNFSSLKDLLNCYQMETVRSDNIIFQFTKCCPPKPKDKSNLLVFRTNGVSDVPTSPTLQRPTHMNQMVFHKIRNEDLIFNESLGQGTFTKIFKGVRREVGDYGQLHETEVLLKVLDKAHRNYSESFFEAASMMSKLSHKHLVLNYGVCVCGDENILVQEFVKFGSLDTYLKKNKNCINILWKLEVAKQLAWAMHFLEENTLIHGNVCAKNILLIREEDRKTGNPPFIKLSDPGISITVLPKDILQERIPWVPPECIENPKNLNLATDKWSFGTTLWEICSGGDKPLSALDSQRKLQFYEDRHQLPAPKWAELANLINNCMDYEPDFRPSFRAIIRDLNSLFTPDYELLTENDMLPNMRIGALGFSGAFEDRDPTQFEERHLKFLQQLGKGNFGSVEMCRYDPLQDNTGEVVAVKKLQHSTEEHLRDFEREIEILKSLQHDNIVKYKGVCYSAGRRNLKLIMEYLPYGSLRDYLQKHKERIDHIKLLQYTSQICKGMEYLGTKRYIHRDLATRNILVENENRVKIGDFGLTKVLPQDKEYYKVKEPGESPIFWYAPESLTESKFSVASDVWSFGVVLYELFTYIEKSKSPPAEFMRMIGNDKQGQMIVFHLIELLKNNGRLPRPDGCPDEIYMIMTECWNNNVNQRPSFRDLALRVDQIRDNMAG
LVGTPYWMAPE [PAK5_Y608] gave a phosphorylation enrichment of 1.14.
EEGNPSFSSAR [MCCC2_Y520_Y520S_YF] gave a phosphorylation enrichment of 0.826.
FPRAWYRRSIA [KIAA1109_Y4272] showed a phosphorylation enrichment of 0.689.
In the case of NSNSDYVDILP [SH2D1B_Y127_V130I], the phosphorylation enrichment is reported as 1.09.
With PNKAVYTKMMT [G6PD_Y401_E398K] the phosphorylation enrichment was 0.59.
Sequence CTNIHYNFMCN [TP53_Y234_T231N_YF] has a phosphorylation enrichment of 0.693.
Work on QKINNYLTVPA [SLC9A1_Y683] yielded a phosphorylation enrichment of 0.615.
Work on FGYPGYQSKHY [TIMP3_Y177] yielded a phosphorylation enrichment of 0.607.
With AKIDGYITSYR the phosphorylation enrichment was 0.558.
Work on YRTGHYLCNAC [GATA1_Y223_D218Y] yielded a phosphorylation enrichment of 0.424.
FHRQLYHKCTH [F12_Y58_YF] gave a phosphorylation enrichment of 0.623.
EQFELYCEMGS [CBL_Y371_YF] showed a phosphorylation enrichment of 1.39.
For RMETAYGPSVT [MXRA5_Y2717_E2716A], the phosphorylation enrichment was 0.661.
With AADGRYEVLFL [SEMA3F_Y478] the phosphorylation enrichment was 1.02.
RRFLFYFSFLL [PTEN_Y177_V175L_YF] showed a phosphorylation enrichment of 0.727.
With CNNFICGGCRG [SPINT2_Y163_Y163C] the phosphorylation enrichment was 0.87.
LATINYPFEKG [NDUFS8_Y84_P79L] was tested, and the phosphorylation enrichment was 0.642.
With SHSMRYFDTSV [HLA-C_Y31_A35S] the phosphorylation enrichment was 0.543.
ADKSAYLMGVN [MYH7_Y386_L390V] showed a phosphorylation enrichment of 0.58.
RTESQYQENRG [LRCH3_Y354_R350T] showed a phosphorylation enrichment of 1.26.
SRASFYRKGGC [ALK_Y1283_Y1278S_YF] showed a phosphorylation enrichment of 0.615.
TMEDSYRKQVV [KRAS_Y40_I36M] gave a phosphorylation enrichment of 0.663.
DAGTDYVGISC [FREM2_Y2061_R2066C] showed a phosphorylation enrichment of 0.732.
Sequence SVVVPYETPEV [TP53_Y220_P222T] has a phosphorylation enrichment of 1.14.
QSKGIYYVQLE [MGAT4B_Y262] was tested, and the phosphorylation enrichment was 1.47.
In the case of DYYDLYGGEKL [PTPN11_Y66_F71L], the phosphorylation enrichment is reported as 3.12.
GLIPAYHWVIM [NMNAT1_Y64_R66W] showed a phosphorylation enrichment of 1.68.
VTPVMYTFDEF [COL10A1_Y623_G618V_YF] was tested, and the phosphorylation enrichment was 1.02.
Work on KEEEDYREENN [BMS1_Y651_K652R] yielded a phosphorylation enrichment of 1.15.
In the case of PRRRFYVVACD [RNASE3_Y134_G130R], the phosphorylation enrichment is reported as 0.733.
HAVFIYDICHV [TWNK_Y508_V507I_YF] was tested, and the phosphorylation enrichment was 1.26.
Work on YKPGFYNLKEK [LAMA1_Y490_C485Y] yielded a phosphorylation enrichment of 0.891.
Work on DFKIIYIAPMR [SNRNP200_Y540] yielded a phosphorylation enrichment of 1.18.
